# [ ]: non-standard residue; d: D form. The star is where a group is joined. dye2 = 5-carboxy-2′,7′-dipyridyl-sulfonefluorescein (Dye 2); Undecanoyl = CCCCCCCCCCC(=O)*; code O = not defined here
# Legend:
# [1] = cited from earlier work
# protein kinase p38βII = protein kinase p38βII (Homo sapiens, UniProt Q15759); assay: Fluorogenic protein kinase assay, real-time fluorescence in 384-well plates; assay type: biochemical; details: substrate 8 μM; 10 and 100 μM ATP; compared with the kinase substrate with one recognition moiety (FIGS. 6A-6B)
# Method: Kinase assays were performed using Coming 384-well, black, non-binding surface (NBS), microwell plates. Fluorescence was read in real time using a […] Gemini XS plate reader, with excitation and emission set at 500 and 550 respectively. The plate was read every minute for one hour at ambient temperature
# Concentrations of dye-labeled peptides were determined by dilution of the purified peptides into dimethylformamide (200 μL) with 1 M NaOH (5 μL) and measuring the absorbance of either 5-carboxy-2′,7′-dipyridyl-sulfonefluorescein (i.e. dye2) at its absorbance maximum (548 nm) or 2′,7′,4,7-tetachloro-5-carboxy fluorescein (i.e. 2′,7′-dichloro-5-carboxy-4,7-dichlorofluorescein or “tet”) at its absorbance maximum (541 nm). The extinction coefficient of both dyes was assumed to be 80,000 cm^−1M^−1.
# […] The solution was pipetted into wells of a 384-well plate ([…] per well). Varying concentrations of ATP (final conc 10 and 100 μM) were added to the wells to initiate the kinase reaction. The plate was read at 500 nm excitation, 550 nm emission, each minute for 1 hour. The signal to background ratio for the kinase substrate with two recognition moieties (compound 2) was improved as compared to the signal to background ratio for the kinase substrate with one recognition moiety.
# [2] = Net charge of substrate from its charged groups; assay type: physicochemical; details: pH 7.6; unphosphorylated substrate
# Text: The net charge of the substrate can be established by including an appropriate number of negatively and positively charged groups in the substrate. For example, to establish a net neutral charge (net charge=0), the substrate is designed to contain an equal number of positively and negatively charged groups. […] Aspartate and glutamate contain carboxyl side chains having a single negative charge. A phosphoserine residue carries two negative charges on a phosphate group. […] In addition, the fluorescent moiety may also contain charged groups that should be considered to obtain a particular net charge of the substrate.
# This is offset by the guanidinium groups in the two arginine residues, for a total of two positive charges. Thus, the net charge of the compound is about 0 at pH 7.6.
# [3] = molecular target: T1, C11-OOK(dye2)RRIPLSPLSPOOK(C11)-amide
# T1 chain: KRRIPLSPLSPK
# [4] = molecular target: T2, C11OOK(dye 2)RRIPLSPOOK(C11)NH2
# T2 chain: KRRIPLSPK
molecule,measurement,setting,value
"N[C@@H](CS)C(=O)O [Cysteine (C), Cysteine]",pK / pKa of side chain,[1],about 8
"N[C@@H](Cc1c[nH]cn1)C(=O)O [Histidine (H), Histidine]",pK / pKa of side chain,[1],about 7
"C11—OOK(dye2)RRIPLSPLSPOOK(C11)-amide ({Undecanoyl-code O-code O}-K(dye2)RRIPLSPLSP[code O][code O]K(Undecanoyl)-NH2; reading uncertain; also: printed as C11—OOK(dye2)RRIPLSPLSPOOK(C11)-amide) [compound 2, kinase substrate for p38βII; two recognition moieties, two hydrophobic moieties, Dye2]",signal to background ratio,protein kinase p38βII,improved signal to background ratio
same,net charge,[2],about 0
protein kinase p38βII (protein) MSGPRAGFYRQELNKTVWEVPQRLQGLRPVGSGAYGSVCSAYDARLRQKVAVKKLSRPFQSLIHARRTYRELRLLKHLKHENVIGLLDVFTPATSIEDFSEVYLVTTLMGADLNNIVKCQALSDEHVQFLVYQLLRGLKYIHSAGIIHRDLKPSNVAVNEDCELRILDFGLARQADEEMTGYVATRWYRAPEIMLNWMHYNQTVDIWSVGCIMAELLQGKALFPGSDYIDQLKRIMEVVGTPSPEVLAKISSEHARTYIQSLPPMPQKDLSSIFRGANPLAIDLLGRMLVLDSDQRVSAAEALAHAYFSQYHDPEDEPEAEPYDESVEAKERTLEEWKELTYQEVLSFKPPEPPKPPGSLEIEQ,"signal to background ratio (fluorescence kinase assay, 10 and 100 µM ATP)",[3],The signal to background ratio for the kinase substrate with two recognition moieties (compound 2) was improved as compared to the signal to background ratio for the kinase substrate with one recognition moiety
same,"signal to background ratio, fold improvement over the substrate with one recognition moiety",[3],improved the signal to background ratio 3 to 5 fold
same,"rate of reaction / signal to background ratio (fluorescence kinase assay, 10 and 100 µM ATP)",[4],"comprising two protein kinase recognition moieties has an improved signal to background ratio as compared to the kinase substrate comprising one protein kinase recognition moiety, C11OOK(dye 2)RRIPLSPOOK(C11)NH2"
